{"source": "paper PMC6925217", "about": "“PtomtAPX, a mitochondrial ascorbate peroxidase, plays an important role in maintaining the redox balance of Populus tomentosa Carr” (Scientific Reports, 2019)", "proteins": {"B1": {"name": "PtosAPX (Populus tomentosa) (protein)", "chain": "ASDAAQLKSAREDIKELLKSKFCHPILVRLGWHDAGTYNKNIEEWAKRGGANGSLRFEIELKHAANAGLVDALKLIQPIKDKYSGVTYADLFQMASATAIEEAGGPKIPMKYGRVDVSVPDECPEEGRLPDAGPPKPADHLRGVFYRMGLDDKEIVALSGAHTLGRSRPERSGWGKPETKYTKNGPGAPGGQSWTAEWLKFDNSYFKDIKERKDEDLLVLPTDAALFEDPSFKVYAEKYAEDKEAFFKDYAEAHAKLSNLGAKFDPPEGIMLDGVAGEKFVAAKYSSGKD", "notes": "ORF minus N-terminal targeting peptide, pET30a, E. coli, purified; 39 kDa on SDS-PAGE; full ORF 1,086 bp; homologue of P. trichocarpa JGI 209946"}}, "substrate": "O=C1O[C@H]([C@@H](O)CO)C(O)=C1O", "assay": "steady-state Michaelis-Menten kinetics", "assay_type": "biochemical, Populus tomentosa", "conditions": "fixed H2O2 concentration", "description": "steady-state Michaelis-Menten kinetics on PtosAPX"}
{"protein": "B1", "values": [{"measurement": "Km", "result": "4.30 ± 1.81", "unit": "mM"}, {"measurement": "Vmax", "result": 850, "unit": "µM/min"}, {"measurement": "kcat", "result": 15000, "unit": "s⁻¹"}, {"measurement": "kcat/Km", "result": "3.48e+06", "unit": "M⁻¹ s⁻¹"}]}
